The results in this text go back to patent US7888090B2, “Mutants of O6-alkylguanine-DNA alkyltransferase” (Ecole Polytechnique Federale de Lausanne, priority 2004, dated 2011).

The test system of one data set is salmon sperm DNA. Description: DNA binding as inhibition by DNA of the reaction with BG-Cy3. As to conditions: salmon sperm DNA 25 µg/ml. Here is the method:
The interaction with DNA is e.g. quantified by assessing the amount of copurified DNA from E. coli extracts under conditions of low salt and absence of DNase. This is compared between parallel purifications of fusion proteins (e.g. fusions to GST) of wild type (human) and mutant AGT by spectroscopic methods (ratio of absorbance at 260 and 280 nm). Alternatively the interaction of AGT with DNA is measured as the inhibition of AGT reactivity with BG-Cy3 (O^6-(4-aminomethyl-benzyl)-guanine coupled to Cy3) as substrate in the presence of DNA. This approach takes advantage of a marked increase of fluorescence of the Cy3 fluorophore upon reaction of BG-Cy3 with AGT. The reaction kinetics of AGT with a Cy3-labeled benzylguanine derivative is followed by fluorescence intensity measurements over several hours at various concentrations of salmon sperm DNA.
DNA binding: DNA binding is measured as inhibition by DNA of the reaction of AGT mutants with BG derivatives. The reaction rate of AGT mutants in a reaction mixture containing salmon sperm DNA (25 µg/ml) instead of oligonucleotide is measured with the BG-Cy3 assay. The reaction rate is determined by fitting the obtained data to a monoexponential increase to maximum.

Data set [1] can be described thus: Reactivity towards N^9-modified O^6-benzylguanine derivatives (preblocking, BG-Cy3 assay). The class given is biochemical. Conditions: 100 µM BG, 15 min. Here is the method: FIG. 3: Reactivity of AGT mutants with N^9-modified BG derivatives. 10 µM AGTM (grey bars) or PGEG-hAGT (black bars) were preblocked with 100 µM N^9-modified BG derivatives (see list below), and subsequently labeled with 20 µM BG-Cy3. After 1 h reaction time, fluorescence intensity (FI) indicated in arbitrary units [a.u.] at 595 nm is measured. The black bold line is set at the reading for condition 1 corresponding to background fluorescence of the fluorophore not attached to protein. Values above this line indicate slow or incomplete reaction with N^9-modified BG-derivative. • 1 Fluorescence of BG-Cy3 without protein; background fluorescence. • 2 Reaction with BG-Cy3; no preblocking, positive control. • 3 Reaction with BG-Cy3, preblocked with 100 µM BG. • 4 Reaction with BG-Cy3, preblocked with 100 µM N^9-isobutyl-O^6-benzylguanine. • 5 Reaction with BG-Cy3, preblocked with 100 µM N^9-propyl-O^6-benzylguanine. • 6 Reaction with BG-Cy3, preblocked with 100 µM N^9-cyanomethyl-O^6-benzylguanine.
Reactivity of AGT towards N^9-modified O^6-benzylguanine derivatives: The experiment is based on the BG-Cy3 assay. Upon reaction of AGT with BG-Cy3, an increase of fluorescence emission intensity of Cy3 by a factor 2-3 can be observed. […]

B1: AGTM: AGT mutant Cys62Ala, Gln115Ser, Gln116His, Lys125Ala, Ala127Thr, Arg128Ala, Gly131Lys, Gly132Thr, Met134Leu, Arg135Ser, Cys150Asn, Ser151Ile, Ser152Asn, Asn157Gly, Ser159Glu, truncated after … (protein, UniProt P16455 1-207, looked up, variant C62A Q115S Q116H K125A A127T R128A G131K G132T M134L R135S C150N S151I S152N N157G S159E del183-207)
Methylated-DNA--protein-cystei …: MDKDCEMKRTTLDSPLGKLELSGCEQGLHEIKLLGKGTSAADAVEVPAPAAVLGGPEPLMQATAWLNAYFHQPEAIEEFPVPALHHPVFQQESFTRQVLWKLLKVVKFGEVISYSHLAALAGNPAATAAVKTALSGNPVPILIPCHRVVNINGAVGGYEGGLAVKEWLLAHEGHRLGKPGLG
modifications: His tag
Take B1: in the data set on salmon sperm DNA, the “reduction of reaction rate to BG-Cy3 in presence of DNA” value is on record as “unchanged”. For the same molecule, the “AGT remaining active after preblocking with BG” value in data set [1] is listed as 5%.
